Source: the nanobody polyreactivity screen of Harvey et al. (2022)

Assay: yeast display, Sf9 membrane polyspecificity reagent, FACS + sequencing; frameworks hold sequencing errors
Procedure, shortened: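 Nanobodies came from a synthetic yeast display library in Saccharomyces cerevisiae BJ5465, induced with galactose for 36–48 hours and stained for 1 hour at 4 °C with 10% biotinylated, detergent-solubilized Sf9 membrane reagent. Cells were enriched on streptavidin microbeads and then FACS-sorted, with low and high (top ~1%) gates set on anti-HA fluorescence for expression and streptavidin fluorescence for reagent binding. Each polyreactivity label reflects the gate a clone came from. Genes were amplified by colony PCR, sequenced by MiSeq 2 × 250 and filtered by CDR length.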

Sequence	polyreactivity (PSR sort gate)
QVQLVESCGGLVQAGGSLRLSCAASGFTFGSYDMGWYRQAPGKERELVAAITWSGGSTYYADSVKGRFTISRDNAKNTVYLQMNSLKPEDTAVYYCNAYKFHMNYWGQGTQVTVSS	high polyreactivity
QVQLVESCGGLVQAGGSLRLSCAASGIIFPPYAMGWYRPAPGKERELVAAITRSGASTYYADSVKGRFTISRDNAKNTVYLQMNSLKPEDTAVYYCAVGVPGGYWKDYYWGQGTQVTVSS	high polyreactivity
QVQLVESCGGLVQAGGSLRLSCAASGITFYGYAMGWYIQAPGKERELVARITISGRTNYADYVKGRFTISRDNAKNTVYLQMNSLKPEDTAVYYCATLVHWSYPYYYWGQGTQVTVSS	high polyreactivity
QVQLVESCGGLVQAGGSLRLSCAASGLTFPKYAMGWYRQAPGKERELVARISYSGASTYYADSVKGRFTISRDNAKNTVYLQMNSLKPEDTAVYYCAARIYRVYYVHFAPYYYWGQGTQVTVSS	high polyreactivity
QVQLVESCGGLVQAGGSLRLSCAASGRIFLYNAMGWYRQAPGKERELVAVISRNGGSTYYADSVKGRFTISRDNAKNTVYLQMNSLKPEDTAVYYCNRYDRLAGRTTYDYWGQGSQVTVSS	high polyreactivity
QVQLVESCGGLVQAGGSLRLSCAASGRIFQTYAMGWYRQAPGKERELVASISWSGGSTYYADSVKGRFTILRDNAKNTVYLQMNSLKPEDTAVYYCAAVYYSTDYYFWYDYWGQGTQVTVSS	low polyreactivity
QVQLVESCGGLVQAGGSLRLSCAASGRIFRWYAMGWYRQAPGKERELVARITSGGSTNYADSVKGRFTISRDNAKNTVYLQMNSLKPEDTAVYYCARDWGKSEYEYWGQGTQVTVSS	high polyreactivity
QVQLVESCGGLVQAGGSLRLSCAASGRILSSYAMGGNRQAPGKERELVADITQRGGTTYYADSVKGRFSISRDNAKNTVYLQMNRLKPEDTAVYYCNAKSYRSYGGRGGVEYDYCGQGTQVTVSS	low polyreactivity
QVQLVESCGGLVQAGGSLRLSCAASGRTFRSYTMGWYRQAPGKERELVASIRTSSGCTYYADSVKGRFTISRDNAKNSVYLKMNSLKPEDTAVYYCAKTLLYPWFRTVAVDYWGQGTQVTVSS	low polyreactivity
QVQLVESCGGLVQAGGSLRLSCAASGSIFRYNAMGWYRQAPWKEWELVAAIRSGSGTNYADSVKGRFTISRDNAKNTVFLQMNSLKPEDTAVYYCNAQPWYRTKYDYWGQGNQVTVSS	low polyreactivity
QVQLVESCGGLVQAGGSLRLSCAASGSTFWKYVMGWYRQAPGKDRELVAAISGRGGSTYYADSVKGRFTISRDNAKNTVYLQMNSLKPEDTAVYYCAKVHTRRKPYNSWGQGTQVTVSS	high polyreactivity
QVQLVESCGGLVQAGGSLRLSCAGSGITIYSYAMGWYRQAPGKERELVAAITLTGGTTYYADSVKGRFTISRDNAKNTVYLQMNSLKPEDTAVYYCNADYGGGVDGTYKYYSEYDYWGQGTQVTVSS	low polyreactivity
QVQLVESCGGLVQAGGSLRLSCASSGRNFPVKAMGWYRQAPGKERELVAGITWSGDGSTYYADSVKGRFTISRDNAKNTVYLLMNSLKPEDTAVYYCAARLNLQGRYDYWGQGTQVTVSS	low polyreactivity
QVQLVESCGGLVQAGGSLRLSCPASGSIFHVNVMGCYRQEPGKERELVAAITYSGGATYYADSVKGRFTISRDNAKNTVYLQMNSLKPEDTAVYYCAAYPYWFFPHYDSWGQGTLVTVSS	low polyreactivity
QVQLVESCGGLVQAGGSLRLSCSASGFIIPYYAMGWYRQAPGKERELVAAISYSGDSTYYADSVKGRFTISRDNAKNTVYLLMISLKPEDTAVYYCAADVEQYYPLLTFDYCGQGTQVTVSS	low polyreactivity
QVQLVESCGGLVQAGGSLRVSCAASGITFDGYAMGSYRQAPGKERELVAAITRRGGNTYYADSVKGRFTISRDNAKNTVHLQLNSQKPEDTAFYYCNAQVVHYRVSSVITYTIYDYSGQGTQVTVSS	high polyreactivity
QVQLVESCGGLVQAGGSLSLSCAASGRILYYYAMGWYRQAPGKERELVAAITSGGSTYADSVKGRFTISRDNAKNTVYLQMNSLKPEDTAVYYCNADYTVYDTEYDYWGQGTQVTVSS	low polyreactivity
QVQLVESCGLLVQAGGSLRLSCAASGSIIVYNTMRCYRQAPGKERELVAAIYSSGGSTYYADSVKGRFTISRDNAKNTVYLQMNILKPEDTAVYYCAAVNGYQYPPYYYNGYDYWGQGTHVTVSS	low polyreactivity
QVQLVESDGGLDQAGGSLRLSCPASGIIFGYYVMGRYRQAPGKERELVASITSGGSTNYADSVKGRFTISRDNAKNTVYLQMNSLKPEDTAVYYCAAEERTDTIPGWRYPHDYWGQGTQVTVSS	low polyreactivity
QVQLVESEGGLVQAGGSLRLSCAASGRTYYAMGWYRQAPGKERELVAAISGTGASTYYADSVKGRFTISRDNAKNTVYLQMNSLKPEDTAVYYCAAEWFYYNTQQWFDYWGQGTQVPVSS	low polyreactivity
QVQLVESEGGLVQAGGSLRLTCAASGFIYKGYAMGSYRQAPGKETELVAAISSSGTSTYYADSVKGRFTISRDNAKNTVYLQMNSLKPEDTAVYYCARVSKRTWSGYYYWGQGTQVTVSS	high polyreactivity
